Patent US20240382677A1 (Regeneron, published 2024)
Each block holds one binder with its values, some of them ahead of it.

Target: T1, recombinant human PD-1 dimer expressed with a C-terminal mouse IgG2a Fc tag (hPD-1-mFc) (human)
T1 construct: also called human PD-1-mFc
Test: BLI Octet Red 96, captured hPD-L1-hFc
Description: Inhibition studies for anti-PD-1 monoclonal antibodies expressed with a mouse Fc were performed on an Octet Red 96 instrument. […] The biosensors were washed in Octet HBST buffer in between each step of the experiment. The real-time binding responses were monitored during the entire course of the experiment and the binding response at the end of every step was recorded.

B1: H2aM7788N (antibody, mouse IgG2a, V domains shown)
VH: EVQLVESGGGLVQPGGSLRLSCGASGFTFRNYDMHWVRQITGKGLEWVSAIGSAGDTYYPDSVKGRFTISRENAKNSLYLQMNSLRVGDTAVYYCTRDIHCSSTRCYGMDVWGQGTTVTVSS
VL: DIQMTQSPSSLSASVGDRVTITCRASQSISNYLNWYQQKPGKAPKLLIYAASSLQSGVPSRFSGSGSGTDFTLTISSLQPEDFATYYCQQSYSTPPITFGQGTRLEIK
notes: mouse IgG2a Fc; human variable regions; also called H2M7788N
- binding of the mixture of 100 nM hPD-1-mFc and 500 nM antibody: 0 nm

B2: H1M7799N (antibody, mouse IgG1, V domains shown)
VH: EVQLVESGGGLVQPGGSLRLSCAASGFTVSNNYMSWVRQAPGKGLEWVSVIYSGGFTYYTDSVKGRFTISRHNSKNTLYLQMNSLRAEDTAVYYCARYYYDTSDYWTFFDYWGQGTLVTVSS
VL: EIVMTQSPATLSVSPGERATLSCRASQSVSSNLAWYQQKPGQAPRLLIYGASTRATGIPARFSGSGSGTEFTLTISSLQSGDFAVYYCQQYNNWPLTFGGGTKVEIN
notes: mouse IgG1 Fc; human variable regions
- binding of the mixture of 100 nM hPD-1-mFc and 500 nM antibody: 0 nm

B3: H1M7800N (antibody, mouse IgG1, V domains shown)
VH: B2 VH
VL: B2 VL
notes: as for B2
- binding of the mixture of 100 nM hPD-1-mFc and 500 nM antibody: 0 nm

B9: H1M7789N (antibody, mouse IgG1, V domains shown)
VH: EVQLLESGGGLVQPGGSLRLSCSASGFTFSSYTMNWVRQAPGKGLEWVSGISDTGGNTYYTDSVKGRFTVSRDNSKNTLSLQMNSLRAEDTAVYYCAKDQGGSYPYYFHYWGQGSLVTVSS
VL: DIQMTQSPSSLSASVGDRVTITCRASQSISSYLIWYQQKPGTAPKFLIYAASSLQSGVPSRFSGCGSGTDFTLTISSLQPEDFATYYCQQSYSTPPITFGQGTRLEIK
notes: mouse IgG1 Fc; human variable regions; also called H1M7789W
- binding of the mixture of 100 nM hPD-1-mFc and 500 nM antibody: 0.05 nm

Now from value to binder:

- binding of the mixture of 100 nM hPD-1-mFc and 500 nM antibody: 0.01 nm
B4: H2aM7798N (antibody, mouse IgG2a, V domains shown)
VH: EVQLLESGGVLVQPGGSLRLSCAASGFTFSNFGMTWVRQAPGKGLEWVSGISGGGRDTYFADSVKGRFTISRDNSKNTLYLQMNSLKGEDTAVYYCVKWGNIYFDYWGQGTLVTVSS
VL: DIQMTQSPSSLSASVGDSITITCRASLSINTFLNWYQQKPGKAPNLLIYAASSLHGGVPSRFSGSGSGTDFTLTIRTLQPEDFATYYCQQSSNTPFTFGPGTVVDFR
notes: mouse IgG2a Fc; human variable regions; also called H2M7798N

- binding of the mixture of 100 nM hPD-1-mFc and 500 nM antibody: 0.23 nm
B5: H2aM7791N (antibody, mouse IgG2a, V domains shown)
VH: QMQLQQWGAGLLKPSETLSLTCVVYGGSLNGYYWSWIRQSPGKGLEWIGEIDHSGSTNYNPSLKNRVTMSVDTSKIQFSLKLTSVTVADTAVYYCAREGLLPFDYWGQGTLVTVSS
VL: EIVLTQSPGTLSLSPGERVTLSCRASQSVYSNYLAWYQQNPGQAPRLLIYAASNRATGIPDRFSGSGSGTDFTLTISRLEPEDFAVYYCHQYATSPWTFGQGTKVEIK
notes: mouse IgG2a Fc; human variable regions; also called H2M7791N

- binding of the mixture of 100 nM hPD-1-mFc and 500 nM antibody: -0.01 nm
B6: H2aM7794N (antibody, V domains shown)
VH: QLQLQESGPDLVKPSDTLSLTCTVSDDSISSTTYYWAWIRQPPGKGLEWIGSMSYNGNNYYNPSLKSRVAISAGTSQKQFSLKLTSVTAADTAVYHCARHLGYNGNWYPFDFWGQGILVTVSS
VL: not shown
notes: mouse IgG2a Fc; human variable regions; also called H2M7794N

- binding of the mixture of 100 nM hPD-1-mFc and 500 nM antibody: -0.01 nm
B7: H2aM7795N (antibody, mouse IgG2a, V domains shown)
VH: EVQVVESGGGLVEPGRSLRLSCKASGFTFDDYAMHWVRQTPGKALEWVSGINWSGNNIGYADSVKGRFTISKDDAKNSLYLQMNSLRPEDTALYYCTKDISITGTLDAFDVWGQGTMVTVSS
VL: DIQMTQSPISVSASVGDRVTITCRASQGISNWLAWYQQKPGIAPKLLIYSASSLQSGVPSRFRGSGSGTDFTLTIGSLQPEDFATYYCQQAHSFPLTFGGGTKVEIK
notes: mouse IgG2a Fc; human variable regions; also called H2M7795N

- binding of the mixture of 100 nM hPD-1-mFc and 500 nM antibody: -0.02 nm
B8: H2aM7796N (antibody, mouse IgG2a, V domains shown)
VH: QVQLVESGGGVVQPGRSLRLSCAASGFTFSSYGMHWVRQAPGKGLEWVAIIWSDGDSEYNLDSVKGRFTISRDNSKNTLYLQMNSLRVEDSAVYYCARDRDLEDIWGQGTMVTVSS
VL: DIQMTQSPSSLSASVGDRVTITCRASQGIRNDLGWYQQKPGKAPKRLIYAASNLQSGVPSRFSGSGSGTEFTLTISSLQPEDFATYYCLQHNSYPLTFGGGTKVEIK
notes: mouse IgG2a Fc; human variable regions; also called H2M7796N
